For the assay, the target named is T1, HA A/Solomon Islands/03/2006 globular head (Influenza A virus A/Solomon …).
T1 chain: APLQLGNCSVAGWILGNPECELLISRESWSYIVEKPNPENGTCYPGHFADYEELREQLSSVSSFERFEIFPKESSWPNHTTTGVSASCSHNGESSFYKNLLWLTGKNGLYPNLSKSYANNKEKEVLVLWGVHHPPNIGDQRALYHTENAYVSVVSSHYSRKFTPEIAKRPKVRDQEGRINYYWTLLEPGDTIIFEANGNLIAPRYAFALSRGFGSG
Put plainly: BLI. (In general: BLI is a label-free optical method that tracks binding on a fibre tip over time.)

B1: CH67 Fab, critical dipeptide VD changed to ID (Fab, V domains shown)
VH: QVQLVQSGAEVRKPGASVKVSCKASGYTFTDNYIHWVRQAPGQGLEWMGWIHPNSGATKYAQKFEGWVTMTRDTSISTVYMELSRSRSDDTAVYYCARAGLEPRSIDYYFYGLDVWGQGTAVTVSS
VL: QSALTQPPSVSVAPGQTATITCGGNNIGRKRVDWFQQKPGQAPVLVVYEDSDRPSGIPERFSDSNSGTTATLTISRVEAGDEADYYCQVWDSDSDHVVFGGGTKLTVL
Usually Kd stands for the free concentration of one partner at which half of the binding sites on the other are occupied at equilibrium, for simple one-to-one binding. What is called kon is the rate constant with which the complex forms. B1: the Kd came to 1790 ± 120 nM and the on-rate constant (kon) came out at 42400 M⁻¹ s⁻¹.

Values taken from PMC4441819 (Cell, 2015).
